Test results from patent publication US20050137135A1 (priority 2002, published 2005).
Square brackets hold non-standard residues; d marks the D form. Ends that are not written are not given here. Peptide text beside a SMILES is read from it. Ahx = NCCCCCC(=O)O

T1: rat pancreatic islet (wild type) GIP-receptor (Rattus norvegicus, UniProt P43219)
T1 construct: expressed in transfected cells; host or cells: CHO-K1 (Chinese hamster ovary)
T1 sequence (P43219 19-455): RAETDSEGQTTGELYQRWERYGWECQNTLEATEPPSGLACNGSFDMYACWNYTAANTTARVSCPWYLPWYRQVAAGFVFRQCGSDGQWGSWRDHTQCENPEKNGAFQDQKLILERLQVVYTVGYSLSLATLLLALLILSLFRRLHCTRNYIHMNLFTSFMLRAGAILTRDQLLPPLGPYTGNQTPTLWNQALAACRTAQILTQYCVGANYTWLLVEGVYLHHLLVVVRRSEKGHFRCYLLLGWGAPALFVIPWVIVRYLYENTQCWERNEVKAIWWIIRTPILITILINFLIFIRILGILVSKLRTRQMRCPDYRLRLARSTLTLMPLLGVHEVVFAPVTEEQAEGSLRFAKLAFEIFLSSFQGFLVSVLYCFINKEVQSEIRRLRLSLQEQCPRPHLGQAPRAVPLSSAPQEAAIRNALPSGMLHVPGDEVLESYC

T2: rat pancreatic islet (wild type) GIP-receptor stably expressed on CHO-K1 cells (rat, UniProt P43219 19-455)
T2 sequence (looked up): T1 sequence (P43219 19-455)

B1: GIP(1-14)(EKEK)(19-30)NH2 (peptide)
peptide: YAEGTFISDYSIAMEKEKQQDFVNWLLAQK-NH2
notes: range 1-14;range 19-30
B2: GIP(1-6)(19-30)NH2 (peptide, UniProt P09681 52-57, looked up)
peptide: YAEGTFQQDFVNWLLAQK-NH2
notes: range 1-6;range 19-30; Core deletion, no linker (formula 5, C not used, truncated at residue 30)
B3: GIP(1-6)(AAAA)(19-30)NH2 (peptide)
peptide: YAEGTFAAAAQQDFVNWLLAQK-NH2
notes: range 1-6;range 19-30; also called GIP(l-6)(AAAA)(19-30)NH2
B4: GIP(1-14)(AAAA)(19-30)NH2 (peptide)
peptide: YAEGTFISDYSIAMAAAAQQDFVNWLLAQK-NH2
notes: range 1-14;range 19-30
B5: GIP(1-6)(Ahx)3(19-30)NH2 (peptide, UniProt P09681 52-57, looked up)
peptide: YAEGTF[Ahx][Ahx][Ahx]QQDFVNWLLAQK-NH2
modifications: N-terminus assumed
SMILES: CC(C)C[C@H](NC(=O)[C@H](CC(C)C)NC(=O)[C@H](Cc1c[nH]c2ccccc12)NC(=O)[C@H](CC(N)=O)NC(=O)[C@@H](NC(=O)[C@H](Cc1ccccc1)NC(=O)[C@H](CC(=O)O)NC(=O)[C@H](CCC(N)=O)NC(=O)[C@H](CCC(N)=O)NC(=O)CCCCCNC(=O)CCCCCNC(=O)CCCCCNC(=O)[C@H](Cc1ccccc1)NC(=O)[C@@H](NC(=O)CNC(=O)[C@H](CCC(=O)O)NC(=O)[C@H](C)NC(=O)[C@@H](N)Cc1ccc(O)cc1)[C@@H](C)O)C(C)C)C(=O)N[C@@H](C)C(=O)N[C@@H](CCC(N)=O)C(=O)N[C@@H](CCCCN)C(N)=O
notes: range 52-57
B6: GIP(1-6)(Ahx)1(19-30)NH2 (peptide, UniProt P09681 52-57, looked up)
peptide: YAEGTF[Ahx]QQDFVNWLLAQK-NH2
modifications: N-terminus assumed
SMILES: CC(C)C[C@H](NC(=O)[C@H](CC(C)C)NC(=O)[C@H](Cc1c[nH]c2ccccc12)NC(=O)[C@H](CC(N)=O)NC(=O)[C@@H](NC(=O)[C@H](Cc1ccccc1)NC(=O)[C@H](CC(=O)O)NC(=O)[C@H](CCC(N)=O)NC(=O)[C@H](CCC(N)=O)NC(=O)CCCCCNC(=O)[C@H](Cc1ccccc1)NC(=O)[C@@H](NC(=O)CNC(=O)[C@H](CCC(=O)O)NC(=O)[C@H](C)NC(=O)[C@@H](N)Cc1ccc(O)cc1)[C@@H](C)O)C(C)C)C(=O)N[C@@H](C)C(=O)N[C@@H](CCC(N)=O)C(=O)N[C@@H](CCCCN)C(N)=O
notes: range 52-57
B7: GIP(1-14)(19-30)NH2 (peptide, UniProt P09681 52-65, looked up)
peptide: YAEGTFISDYSIAMQQDFVNWLLAQK-NH2
notes: range 1-14;range 19-30; Core deletion, no linker (formula 6, D unused, truncated at residue 30)
B8: GIP(1-6)(Ahx)2(19-30)NH2 (peptide, UniProt P09681 52-57, looked up)
peptide: YAEGTF[Ahx][Ahx]QQDFVNWLLAQK-NH2
modifications: N-terminus assumed
SMILES: CC(C)C[C@H](NC(=O)[C@H](CC(C)C)NC(=O)[C@H](Cc1c[nH]c2ccccc12)NC(=O)[C@H](CC(N)=O)NC(=O)[C@@H](NC(=O)[C@H](Cc1ccccc1)NC(=O)[C@H](CC(=O)O)NC(=O)[C@H](CCC(N)=O)NC(=O)[C@H](CCC(N)=O)NC(=O)CCCCCNC(=O)CCCCCNC(=O)[C@H](Cc1ccccc1)NC(=O)[C@@H](NC(=O)CNC(=O)[C@H](CCC(=O)O)NC(=O)[C@H](C)NC(=O)[C@@H](N)Cc1ccc(O)cc1)[C@@H](C)O)C(C)C)C(=O)N[C@@H](C)C(=O)N[C@@H](CCC(N)=O)C(=O)N[C@@H](CCCCN)C(N)=O
notes: range 52-57
B9: GIP(1-6)(EKEEKEKEEKE)(19-30)NH2 (peptide)
peptide: YAEGTFEKEEKEKEEKEQQDFVNWLLAQK-NH2
notes: range 1-6;range 19-30; The expected mass 3574.0 fits the 11-residue linker as printed
B10: GIP(1-6)(EKEK)(19-30)NH2 (peptide)
peptide: YAEGTFEKEKQQDFVNWLLAQK-NH2
notes: range 1-6;range 19-30

Tests used:
[1] = target: T1, rat pancreatic islet (wild type) GIP-receptor; assay: biochemical; type: binding; conditions: read-out: Receptor Binding % Displacement at 20 μM
Protocol: (§1) Cells were cultured in DMEM/F12, supplemented with 10% newborn calf serum, 50 units/ml penicillin G, and 50 μg/ml streptomycin (Culture media and antibiotics from Gibco BRL, Life Technologies). Cells were grown in 75 cm^2 flasks until 80-90% confluent, when they were split and seeded onto 24 well plates at a density of 50,000 cells/well. Experiments were carried out 48 h later.
(§2) Binding studies using ^125I-labeled spGIP1-42, purified by high performance liquid chromatography (HPLC), were performed essentially as described previously-[21]. wtGIP-R1 Cells (1-5×10^5/well) were washed twice at 4° C. in binding buffer (BB), consisting of DMEM/F12 (GIBCO), 15 mM HEPES, 0.1% bovine serum albumin (BSA), 1% Trasylol (aprotinin; Bayer), pH 7.4. They were incubated for 12-16 h at 4° C. with ^125I-spGIP (50,000 cpm) in the presence or absence of unlabeled GIP1-42 or analogue. Following incubation, cells were washed twice with ice cold buffer, solubilized with 0.1 M NaOH (1 ml), and transferred to culture tubes for counting of cell-associated radioactivity. Nonspecific binding was defined as that measured in the presence of 1 μM GIP1-42 or GIP1-30, and specific binding expressed as % of binding in the absence of competitor (% B/Bo).

[2] = target: T1, rat pancreatic islet (wild type) GIP-receptor; assay: cAMP production in CHO-K1 cells expressing the GIP-receptor (wtGIP-R1 cells); type: cell-based; conditions: Table 3; cyclic AMP stimulated by 20 μM peptide if plateau levels were not achieved
Protocol: as §1
Cells were extracted with 70% ethanol and cAMP levels measured by radioimmunoassay (Biomedical Technologies, Stoughton, Mass.). Data are expressed as fmol/1000 cells or % maximal GIP1-42-stimulated cAMP production (inhibition experiments).

[3] = target: T2, rat pancreatic islet (wild type) …; assay: cell-based or functional assay
[4] = target: T2, rat pancreatic islet (wild type) …; assay: displacement of 125I-GIP from CHO-K1 cells transfected with rat GIP receptor, 20 µM peptide
Protocol: as §1, with “cm²” for “cm^2”
as §2, with “¹²⁵I-labeled spGIP₁₋₄₂,” for “^125I-labeled spGIP1-42,”, “(1-5×10⁵/well)” for “(1-5×10^5/well)”, “¹²⁵I-spGIP” for “^125I-spGIP”, “GIP₁₋₄₂” for “GIP1-42”, “GIP₁₋₃₀,” for “GIP1-30,”

[5] = target: T2, rat pancreatic islet (wild type) …; assay: competition with 125I-GIP on CHO-K1 cells transfected with rat GIP receptor
Protocol: as §1, with “cm²” for “cm^2”
as §2, with “¹²⁵I-labeled spGIP₁₋₄₂,” for “^125I-labeled spGIP1-42,”, “(1-5×10⁵/well)” for “(1-5×10^5/well)”, “¹²⁵I-spGIP” for “^125I-spGIP”, “GIP₁₋₄₂” for “GIP1-42”, “GIP₁₋₃₀,” for “GIP1-30,”

Molecule | inhibition at 20 µM [1] | cAMP Production Max. cAMP (Fold Basal) [2] | Max. cAMP (Fold Basal) [3] | cAMP Production EC50 [3] | % Displacement at 20 µM [4] | IC50 [5]
CC[C@H](C)[C@H](NC(=O)[C@H](CO)NC(=O)[C@H](Cc1ccc(O)cc1)NC(=O)[C@H](CC(=O)O)NC(=O)[C@H](CO)NC(=O)[C@@H](NC(=O)[C@H](Cc1ccccc1)NC(=O)[C@@H](NC(=O)CNC(=O)[C@H](CCC(=O)O)NC(=O)[C@H](C)NC(=O)[C@@H](N)Cc1ccc(O)cc1)[C@@H](C)O)[C@@H](C)CC)C(=O)N[C@@H](C)C(=O)N[C@@H](CCSC)C(=O)NCCCCCC(=O)NCCCCCC(=O)N[C@@H](CCC(N)=O)C(=O)N[C@@H](CCC(N)=O)C(=O)N[C@@H](CC(=O)O)C(=O)N[C@@H](Cc1ccccc1)C(=O)N[C@H](C(=O)N[C@@H](CC(N)=O)C(=O)N[C@@H](Cc1c[nH]c2ccccc12)C(=O)N[C@@H](CC(C)C)C(=O)N[C@@H](CC(C)C)C(=O)N[C@@H](C)C(=O)N[C@@H](CCC(N)=O)C(=O)N[C@@H](CCCCN)C(N)=O)C(C)C [GIP(1-14)(Ahx)2(19-30)NH2] (H-YAEGTFISDYSIAM[Ahx][Ahx]QQDFVNWLLAQK-NH2; N-terminus assumed) | 85.8 ± 1.6% | 95.9 ± 3.2 Fold Basal |  |  |  | 
CC(C)C[C@H](NC(=O)[C@H](CC(C)C)NC(=O)[C@H](Cc1c[nH]c2ccccc12)NC(=O)[C@H](CC(N)=O)NC(=O)[C@@H](NC(=O)[C@H](Cc1ccccc1)NC(=O)[C@H](CC(=O)O)NC(=O)[C@H](CCC(N)=O)NC(=O)[C@H](CCC(N)=O)NC(=O)CCCCCNC(=O)[C@H](Cc1ccccc1)NC(=O)[C@@H](NC(=O)CNC(=O)[C@H](CCC(=O)O)NC(=O)[C@H](C)NC(=O)[C@@H](N)Cc1ccc(O)cc1)[C@@H](C)O)C(C)C)C(=O)N[C@@H](C)C(=O)N[C@@H](CCC(N)=O)C(=O)N[C@@H](CCCCN)C(N)=O [GIP(1-6)(Ahx)1(19-30)NH2] (H-YAEGTF[Ahx]QQDFVNWLLAQK-NH2; N-terminus assumed) | 62 ± 4.3% | 95.9 ± 8.6 Fold Basal |  |  |  | 
YAEGTFISDYSIAMEKEKQQDFVNWLLAQK-NH2 [GIP(1-14)(EKEK)(19-30)NH2] | 98.7 ± 1.1% | 80.6 ± 5.6 Fold Basal |  |  |  | 
YAEGTFQQDFVNWLLAQK-NH2 [GIP(1-6)(19-30)NH2] | 88.2 ± 0.7% | 1.81 ± 0.42 Fold Basal |  |  |  | 
B1 |  |  | 80.6 fold basal | 0.077 nM | 98.7% | 26 nM
B2 |  |  | 1.81 fold basal |  | 88.2% | 2740 nM
B3 |  |  | 7.21 fold basal |  | 88.7% | 2410 nM
B4 |  |  | 82.1 fold basal | 0.0587 nM | 100% | 66.3 nM
B5 |  |  | 13.5 fold basal |  | 67.1% | 4030 nM
B6 |  |  | 95.9 fold basal | 14500 nM | 62% | 8730 nM
B7 |  |  | 127 fold basal | 78.7 nM | 95.4% | 1370 nM
B8 |  |  | 2.55 fold basal |  | 75.3% | 4980 nM
B9 |  |  | 84.9 fold basal | 8390 nM | 75.1% | 4270 nM
B10 |  |  | 8.17 fold basal |  | 86.8% | 2090 nM
